In US20220040297A1 (Chugai, published 2022):
Substitutions are numbered along the chain they refer to. In names and notes the source's numbering stands.

B1: CE115HA000 K43Q (antibody, name in Kabat numbering, V domains shown)
VH: QVQLVESGGGVVQPGRSLRLSCAASGFTFSNAWMHWVRQAPGQGLEWVAQIKAKSNNYATYYAESVKGRFTISRDDSKNSLYLQMNSLKTEDTAVYYCRYVHYGAYYGVDAWGQGTTVTVSS
VL: DIVMTQSPLSLPVTPGEPASISCRSSQSLVHSNRNTYLHWYQQKPGQAPRLLIYKVSNRFSGVPDRFSGSGSGTDFTLKISRVEAEDVGVYYCGQGTQVPYTFGQGTKLEIK
B2: CE115HA000 K64E (antibody, name in Kabat numbering, V domains shown)
VH: B1 VH with Q43K, K67E
VL: B1 VL
B3: CE115HA000 N53H (antibody, name in Kabat numbering, V domains shown)
VH: B1 VH with Q43K, N56H
VL: B1 VL
B4: CE115HA000 N31R (antibody, name in Kabat numbering, V domains shown)
VH: B1 VH with N31R, Q43K
VL: B1 VL
B5: CE115HA000 K52H (antibody, name in Kabat numbering, V domains shown)
VH: B1 VH with Q43K, K52H
VL: B1 VL
B6: CE115HA000 N31H (antibody, name in Kabat numbering, V domains shown)
VH: B1 VH with N31H, Q43K
VL: B1 VL
B7: CE115HA000 K52D (antibody, name in Kabat numbering, V domains shown)
VH: B1 VH with Q43K, K52D
VL: B1 VL
B8: CE115HA000 N53A (antibody, name in Kabat numbering, V domains shown)
VH: B1 VH with Q43K, N56A
VL: B1 VL
B9: CE115HA000 N53I (antibody, name in Kabat numbering, V domains shown)
VH: B1 VH with Q43K, N56I
VL: B1 VL
B10: CE115HA000 N53Q (antibody, name in Kabat numbering, V domains shown)
VH: B1 VH with Q43K, N56Q
VL: B1 VL
B11: CE115HA000 K52bD (antibody, name in Kabat numbering, V domains shown)
VH: B1 VH with Q43K, K54D
VL: B1 VL
B12: CE115HA000 L78I (antibody, name in Kabat numbering, V domains shown)
VH: B1 VH with Q43K, L81I
VL: B1 VL
B13: CE115HA000 K52F (antibody, name in Kabat numbering, V domains shown)
VH: B1 VH with Q43K, K52F
VL: B1 VL
B14: CE115HA000 N53G (antibody, name in Kabat numbering, V domains shown)
VH: B1 VH with Q43K, N56G
VL: B1 VL
B15: CE115HA000 K75T (antibody, name in Kabat numbering, V domains shown)
VH: B1 VH with Q43K, K78T
VL: B1 VL
B16: CE115HA000 N31I (antibody, name in Kabat numbering, V domains shown)
VH: B1 VH with N31I, Q43K
VL: B1 VL
B17: CE115HA000 N31A (antibody, name in Kabat numbering, V domains shown)
VH: B1 VH with N31A, Q43K
VL: B1 VL
B18: CE115HA000 K52bN (antibody, name in Kabat numbering, V domains shown)
VH: B1 VH with Q43K, K54N
VL: B1 VL
B19: CE115HA000 K52bR (antibody, name in Kabat numbering, V domains shown)
VH: B1 VH with Q43K, K54R
VL: B1 VL
B20: CE115HA000 K52S (antibody, name in Kabat numbering, V domains shown)
VH: B1 VH with Q43K, K52S
VL: B1 VL
B21: CE115HA000 K64Q (antibody, name in Kabat numbering, V domains shown)
VH: B1 VH with Q43K, K67Q
VL: B1 VL
B22: CE115HA000 K52bL (antibody, name in Kabat numbering, V domains shown)
VH: B1 VH with Q43K, K54L
VL: B1 VL
B23: CE115HA000 K52E (antibody, name in Kabat numbering, V domains shown)
VH: B1 VH with Q43K, K52E
VL: B1 VL
B24: CE115HA000 N31G (antibody, name in Kabat numbering, V domains shown)
VH: B1 VH with N31G, Q43K
VL: B1 VL
B25: CE115HA000 K52W (antibody, name in Kabat numbering, V domains shown)
VH: B1 VH with Q43K, K52W
VL: B1 VL
B26: CE115HA000 K52bA (antibody, name in Kabat numbering, V domains shown)
VH: B1 VH with Q43K, K54A
VL: B1 VL
B27: CE115HA000 K64S (antibody, name in Kabat numbering, V domains shown)
VH: B1 VH with Q43K, K67S
VL: B1 VL
B28: CE115HA000 N31S (antibody, name in Kabat numbering, V domains shown)
VH: B1 VH with N31S, Q43K
VL: B1 VL
B29: CE115HA000 N31F (antibody, name in Kabat numbering, V domains shown)
VH: B1 VH with N31F, Q43K
VL: B1 VL
B30: CE115HA000 N31W (antibody, name in Kabat numbering, V domains shown)
VH: B1 VH with N31W, Q43K
VL: B1 VL
B31: CE115HA000 N53K (antibody, name in Kabat numbering, V domains shown)
VH: B1 VH with Q43K, N56K
VL: B1 VL
B32: CE115HA000 K52N (antibody, name in Kabat numbering, V domains shown)
VH: B1 VH with Q43K, K52N
VL: B1 VL
B33: CE115HA000 N31K (antibody, name in Kabat numbering, V domains shown)
VH: B1 VH with N31K, Q43K
VL: B1 VL
B34: CE115HA000 K52bS (antibody, name in Kabat numbering, V domains shown)
VH: B1 VH with Q43K, K54S
VL: B1 VL
B35: CE115HA000 K52bY (antibody, name in Kabat numbering, V domains shown)
VH: B1 VH with Q43K, K54Y
VL: B1 VL
B36: CE115HA000 K64A (antibody, name in Kabat numbering, V domains shown)
VH: B1 VH with Q43K, K67A
VL: B1 VL
B37: CE115HA000 K52Y (antibody, name in Kabat numbering, V domains shown)
VH: B1 VH with Q43K, K52Y
VL: B1 VL
B38: CE115HA000 N31Q (antibody, name in Kabat numbering, V domains shown)
VH: B1 VH with N31Q, Q43K
VL: B1 VL
B39: CE115HA000 N53D (antibody, name in Kabat numbering, V domains shown)
VH: B1 VH with Q43K, N56D
VL: B1 VL
B40: CE115HA000 N31Y (antibody, name in Kabat numbering, V domains shown)
VH: B1 VH with N31Y, Q43K
VL: B1 VL
B41: CE115HA000 K52I (antibody, name in Kabat numbering, V domains shown)
VH: B1 VH with Q43K, K52I
VL: B1 VL
B42: CE115HA000 K52R (antibody, name in Kabat numbering, V domains shown)
VH: B1 VH with Q43K, K52R
VL: B1 VL
B43: CE115HA000 N31D (antibody, name in Kabat numbering, V domains shown)
VH: B1 VH with N31D, Q43K
VL: B1 VL
B44: CE115HA000 K52bQ (antibody, name in Kabat numbering, V domains shown)
VH: B1 VH with Q43K, K54Q
VL: B1 VL
B45: CE115HA000 K64D (antibody, name in Kabat numbering, V domains shown)
VH: B1 VH with Q43K, K67D
VL: B1 VL

Target: T1, CD3ε homodimer protein (human, UniProt P07766 23-126, limits assumed, sulfo-tag or biotin label in some ECL assays)
T1 construct: also called human CD3ε homodimer protein; CD3 (CD3ε)
Experiment: SPR, CD3ε homodimer on chip;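 further: biacore SPR with antibody variants flowed as analyte over amine-coupled CD3ε homodimer on a CM chip, bound amount of each single-residue H chain variant over that of parent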

T1 sequence (P07766 23-126 limits assumed): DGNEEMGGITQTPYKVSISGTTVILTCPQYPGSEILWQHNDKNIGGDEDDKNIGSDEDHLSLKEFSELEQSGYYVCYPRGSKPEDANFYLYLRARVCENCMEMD

| Binder | ratio of amounts bound vs CE115HA000 |
| --- | --- |
| B1 | 0.99 |
| B2 | 0.74 |
| B3 | 0.76 |
| B4 | 1.14 |
| B5 | 0.22 |
| B6 | 0.68 |
| B7 | 0.25 |
| B8 | 0.7 |
| B9 | 0.68 |
| B10 | 1.1 |
| B11 | 0.27 |
| B12 | 1.34 |
| B13 | 0.17 |
| B14 | 0.5 |
| B15 | 9.34 |
| B16 | 0.81 |
| B17 | 0.5 |
| B18 | 0.27 |
| B19 | 1.11 |
| B20 | 0.28 |
| B21 | 0.89 |
| B22 | 0.61 |
| B23 | 0.26 |

| Binder | ratio of amounts bound vs CE115HA000 |
| --- | --- |
| B24 | 0.39 |
| B25 | 0.22 |
| B26 | 0.67 |
| B27 | 0.84 |
| B28 | 0.81 |
| B29 | 0.62 |
| B30 | 0.63 |
| B31 | 0.78 |
| B32 | 0.34 |
| B33 | 1.01 |
| B34 | 0.68 |
| B35 | 0.74 |
| B36 | 0.32 |
| B37 | 0.18 |
| B38 | 0.49 |
| B39 | 0.39 |
| B40 | 0.64 |
| B41 | 0.33 |
| B42 | 0.92 |
| B43 | 0.37 |
| B44 | 0.6 |
| B45 | 0.72 |
